Data on two molecules can be found in patent US20250352576A1 (University of California, published 2025).

This assay deals with T1, HLA-A*02:01 on TAP deficient T2 cells (human).
T1 construct: whole, on cells; Endogenous HLA class I of T2 cells, detected with the pan HLA antibody W6/32
Nature of the assay: T2 cell HLA stabilization assay, flow cytometry with pan HLA antibody W6/32. Here is the method: HLA-A*02:01 TAP deficient T2 cells (2×10⁵ in 200 μL) were incubated with peptides (25 μg per ml in 10% DMSO in PBS) in AIM-V plus 1% human serum at 25° C. overnight to facilitate peptide binding by reducing HLA turnover. The following day the cells were returned to 37° C. for 5 hours then stained with a pan HLA antibody (FITC-conjugated HLA, B, C; clone W6/32). HLA class I expression was measured by flow cytometry, and the percent increase in mean fluorescence intensity over cells incubated with 10% DMSO alone was calculated.
For orientation: Flow cytometry measures light scatter and fluorescence of single cells or particles in a stream.

B1: YMYNKVAVL peptide (Atl2/ATL2 alternative splicing variant) (peptide)
peptide: YMYNKVAVL
notes: Peptide added to T2 cells at 25 ug per ml; also called one of the SYY peptides; candidate therapeutic peptide
For B1, the binding result is on record as “binds”.

B2: SMLEKTALL peptide (Sfxn5/SFXN5 alternative splicing variant) (peptide)
peptide: SMLEKTALL
notes: as for B1
Turning to B2, the binding result is “binds”.
